# T1: mouse Il11ra1 (Mus musculus, UniProt Q64385)
# T1 sequence (Q64385 24-432): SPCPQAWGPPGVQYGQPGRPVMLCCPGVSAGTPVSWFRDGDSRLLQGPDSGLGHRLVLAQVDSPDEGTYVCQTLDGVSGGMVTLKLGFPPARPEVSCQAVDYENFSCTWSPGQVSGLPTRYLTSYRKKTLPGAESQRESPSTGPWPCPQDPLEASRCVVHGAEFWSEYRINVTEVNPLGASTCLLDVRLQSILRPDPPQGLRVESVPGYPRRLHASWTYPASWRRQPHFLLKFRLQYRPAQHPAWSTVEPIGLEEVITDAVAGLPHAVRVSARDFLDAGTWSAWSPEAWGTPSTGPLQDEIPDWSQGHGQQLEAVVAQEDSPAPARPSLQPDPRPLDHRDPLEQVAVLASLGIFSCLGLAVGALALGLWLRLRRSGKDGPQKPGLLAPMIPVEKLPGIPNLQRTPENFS
# B1: X203: mouse anti-mouse IL-11 IgG (IgG1κ), neutralising; VH SEQ ID NO:22, VL SEQ ID NO:23 (antibody, V domains shown)
# VH: EVQLQQSGPELVKPGASVKIPCKASGYTFTDYNMDWVKQSHGKSLEWIGDINPHNGGPIYNQKFTGKATLTVDKSSSTAYMELRSLTSEDTAVYYCARGELGHWYFDVWGTGTTVTVSS
# VL: DIVLTQSPASLAVSLGQRATISCRASKSVSTSGYSYIHWYQQKPGQPPKLLIYLASNLDSGVPARFSGSGSGTDFTLNIHPVEEEDAATYYCQHSRDLPPTFGGGTKLEIK
# modifications: Enx203 VH; Enx203 VL
# B2: X209: mouse anti-mouse IL-11Rα IgG (IgG1κ), neutralising; VH SEQ ID NO:24, VL SEQ ID NO:25 (antibody, V domains shown)
# VH: QVQLQQPGAELVRPGSSVKLSCKASGYTFTNYWMHWLKQRPVQGLEWIGNIGPSDSKTHYNQKFKDKATLTVDKSSSTAYMQLNSLTSEDSAVYYCARGDYVLFTYWGQGTLVTVSA
# VL: DIVLTQSPATLSLSPGERATLSCRASQSISNNLHWYQQKSHEAPRLLIKYASQSISGIPARFSGSGSGTDFTLSFSSLETEDFAVYFCQQSYSWPLTFGQGTKLEIK
# modifications: Enx209 VH; Enx209 VL
# How the values were obtained:
# [1] = test system: mice with UUO-induced kidney injury; assay: Weight loss after UUO-induced acute kidney injury; assay type: in vivo, mouse; conditions: 20 mg/kg 2×/week from day 4 post-UUO
# Method: In further experiments, mice were subjected to unilateral ureter obstruction (UUO)-induced acute kidney injury. UUO surgeries were carried out on 12-week old mice. Briefly, mice were anesthetized by IP injection of ketamine (100 mg/kg)/xylazine (10 mg/kg) and full depth of anaesthesia was accessed with the pedal reflex. Mice were then shaved on the left side of the abdomen. A vertical incision was made through the skin with a scalpel, a second incision was made through the peritoneum to reveal the kidney. Using forceps, the kidney was brought to the surface and the ureter was tied with surgical silk, twice, below the kidney. The ligated kidney was placed gently back into its correct anatomical position and sterile saline was added to replenish loss of fluid. The incisions were then sutured. Animals were post-operatively treated with antibiotic enrofloxacin (15 mg/kg, SC) and analgesic buprenorphine (0.1 mg/kg, SC) for three consecutive days. Mice were sacrificed 10 days post-ligation. Mice were intraperitoneally injected with 20 mg/kg (2×/week) of anti-IL-11 antibody or identical concentration of IgG isotype control from day 4 post-surgery until the mice were sacrificed.
# [2] = test system: WDF-fed mice; assay: WDF diet-induced obesity/T2D model (Example 2); assay type: in vivo, mouse
# Method: Mice were injected intraperitoneally with 10 mg/kg of an antagonist anti-IL-11 antibody, an antagonist anti-IL-11Rα antibody, or an identical amount of isotype-matched IgG control antibody. The anti-IL-11 and anti-IL-11Rα antibodies bind to mouse IL-11 and mouse IL-11Rα respectively, and inhibit IL-11 mediated signalling.
# In order to establish metabolic diseases such as obesity and T2D, mice were fed Western diet (D12079B, Research Diets), supplemented with 15% weight/volume fructose in drinking water (WDF) for 16 weeks, from 12 weeks of age.
# Total body fat and lean mass measurements were performed every two weeks by EchoMRI analysis using 4in1 Body Composition Analyzer for Live Small Animals.
# For fasting blood glucose measurements, mice were fasted for 6 hours prior to blood collection (via tail snip), and Accu-Chek blood glucose meter was used to obtain fasting glucose measurements.
# For intraperitoneal glucose tolerance tests, mice were fasted for 6 h prior to being subjected to ipGTT. Basal fasting glucose was measured by tail snip using Accu-Chek blood glucose meter. 2 g/kg lean mass glucose was injected intraperitoneally, and glucose measurements were taken every 15 min for 2 hours. The area under the curve (AUC) was calculated, and plotted as bar graphs.
# For histological analysis, pancreas samples were excised and fixed for 24 hours at RT in 4% neutral-buffered formalin (NBF), and stored in 30% sucrose. 5 μm cryosections were stained with either glucagon or insulin antibodies overnight, and visualized with ImmPRESS HRP IgG polymer detection kit (Vector Laboratories) with ImmPACT DAB Peroxidase Substrate (Vector Laboratories) according to standard protocols, and examined by light microscopy.
# [3] = test system: primary human hepatocytes; assay: Palmitate loading (lipotoxicity) of primary human hepatocytes; assay type: cell-based
# Method: Palmitate:BSA conjugated solution in the ratio of 6:1 was prepared as described earlier (Alsabeeh et al., 2018). Palmitate (0.5 mM) conjugated in fatty acids free BSA was used to treated cells as described in figure legends; 0.5% BSA solution was used as control. […]
# Primary human hepatocytes were seeded on 8-well chamber slides (1×10^4 cells/well). For this experiment, cells were not serum-starved prior to palmitate treatment. 24 hours following palmitate stimulation, cells were washed, incubated with 25 μM of DCFDA solution (ab113851, Abcam) for 45 minutes at 37° C. in the dark, and rinsed with dilution buffer according to the manufacturer's protocol. Live cells with positive DCF staining were imaged with filter set appropriate for fluorescein (FITC) using a fluorescence microscope (Leica). […]
# Western blots were carried out on total protein extracts from hepatocytes and liver tissues. Hepatocyte and liver tissue lysates were homogenized in RIPA Lysis and Extraction Buffer (89901, Thermo Scientific) containing protease and phosphatase inhibitors (Roche). Protein lysates were separated by SDS-PAGE and transferred to PVDF membranes. Protein bands were visualized using the ECL detection system (Pierce) with the appropriate secondary antibodies: anti-rabbit HRP or anti-mouse HRP.
# [4] = target: T1, mouse Il11ra1; assay: Binding of X209 to mouse Il11ra1 (Octet); conditions: Octet system
# Method: Binding of X209 to human IL11RA was measured on Biacore T200 (GE Healthcare). X209 was immobilized onto an anti-mouse capture chip. Interaction assays were performed with HEPES-buffered saline pH 7.4 containing 0.005% P20 and 0.5% BSA. A concentration range (1.56 nM to 100 nM) of the analyte (human IL11 RA) was injected over X209 and reference surfaces at a flow rate of 40 μl min^−1. Binding to mouse Il11ra1 was confirmed on Octet system (ForteBio) using a similar strategy. All sensograms were aligned and double-referenced^4. Affinity and kinetic constants were determined by fitting the corrected sensorgrams with 1:1 Langmuir model. The equilibrium binding constant KD was determined by the ratio of kd/ka.
# [5] = test system: PSCs; assay: Pancreatic stellate cell (PSC) activation in vitro; assay type: cell-based; conditions: 24 hours
# Method: FIGS. 48A and 48B. Box plots and images showing activation of pancreatic stellate cells (PSCs) to a αSMA-positive, collagen-expressing fibrogenic phenotype. (A) Quantification of high-content imaging assays for the percentage of ACTA2-positive cells and collagen I intensity/area following in vitro stimulation of PSCs for 24 hours with the indicated factors, in the presence or absence of neutralising anti-IL-11 RA antibody or IgG isotype control antibody. (B) Representative images for high-content imaging analysis of collagen I intensity/area following in vitro stimulation of PSCs for 24 hours with the indicated factors, in the presence of neutralising anti-IL-11 RA antibody or IgG isotype control antibody.
molecule,measurement,setting,value
B1,regain of body weight,[1],regained their body weight more quickly than those receiving IgG control
same,time to return to normal weight,[1],≤ 4 days
B2,body weight,[2]; WDF-fed mice vs IgG control,significant reduction in body weight
same,fasting blood glucose levels,[2]; WDF-fed mice vs IgG control,significantly lower
same,fat mass,[2]; WDF-fed mice vs IgG control,significantly reduced fat mass
same,glucose tolerance (ipGTT),[2]; WDF-fed mice vs IgG control,significant improvement in glucose tolerance
same,lean mass,[2]; WDF-fed mice vs IgG control,increase in lean mass
same,serum cholesterol levels,[2]; WDF-fed mice vs IgG control,significantly lower
same,serum triglyceride levels,[2]; WDF-fed mice vs IgG control,significantly lower
same,pancreas weight,[2]; treated from 8 to 16 weeks or from 16 to 24 weeks,remarkable protection against WDF-induced loss of pancreas
same,glucagon staining in pancreatic islets,[2]; treatment from 16 to 24 weeks,remarkably reduced
same,insulin expression in the islets,[2]; treatment from 16 to 24 weeks,improved
same,islet hyperplasia,[2]; treatment from 16 to 24 weeks,remarkably reduced
same,palmitate-induced signaling events,[3]; Western blot,largely inhibited
same,"secretion of cytokines (IL11, IL6, CCL2, CCL5)",[3]; X209 2 μg/ml or sgp130 1 μg/ml,reduced the secretion of all cytokines
same,NOX4 upregulation by palmitate,[3]; palmitate,inhibited
same,caspase3 activation,[3]; palmitate,largely inhibited
same,fatty acid synthase (FASN) upregulation,[3]; palmitate,largely inhibited
same,triglyceride accumulation,[3]; palmitate,largely inhibited
same,ROS production,[3]; sFA-loaded hepatocytes,prevent ROS production
same,glutathione (GSH) levels,[3]; sFA-loaded hepatocytes,partial restoration
same,Binding to mouse Il11ra1,[4],confirmed
same,"PSC activation irrespective of the stimulus (TGFβ1, IL-11, bFGF, CTGF, PDGF or ET-1)",[5],inhibited
